Measurements taken from PMC8016751 (Nature, 2020).
Like-named read-outs stand apart in the source and are kept apart here.

T1: MBP-tagged Mei4 (S. cerevisiae, UniProt P29467 1-408)
T1 sequence: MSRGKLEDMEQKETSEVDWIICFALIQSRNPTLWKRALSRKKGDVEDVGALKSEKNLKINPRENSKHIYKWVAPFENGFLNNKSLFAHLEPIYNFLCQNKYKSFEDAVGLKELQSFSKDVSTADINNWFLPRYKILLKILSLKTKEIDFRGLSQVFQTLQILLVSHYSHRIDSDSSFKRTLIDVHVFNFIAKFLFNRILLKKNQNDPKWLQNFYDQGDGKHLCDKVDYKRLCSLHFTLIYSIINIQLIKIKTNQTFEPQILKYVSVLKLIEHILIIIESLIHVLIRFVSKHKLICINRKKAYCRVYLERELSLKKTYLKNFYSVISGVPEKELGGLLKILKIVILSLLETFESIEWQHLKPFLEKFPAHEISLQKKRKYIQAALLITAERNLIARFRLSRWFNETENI

T2: Mei4 (untagged, from ^MBP-TEVMei4) (S. cerevisiae, UniProt P29467 1-408)
T2 sequence: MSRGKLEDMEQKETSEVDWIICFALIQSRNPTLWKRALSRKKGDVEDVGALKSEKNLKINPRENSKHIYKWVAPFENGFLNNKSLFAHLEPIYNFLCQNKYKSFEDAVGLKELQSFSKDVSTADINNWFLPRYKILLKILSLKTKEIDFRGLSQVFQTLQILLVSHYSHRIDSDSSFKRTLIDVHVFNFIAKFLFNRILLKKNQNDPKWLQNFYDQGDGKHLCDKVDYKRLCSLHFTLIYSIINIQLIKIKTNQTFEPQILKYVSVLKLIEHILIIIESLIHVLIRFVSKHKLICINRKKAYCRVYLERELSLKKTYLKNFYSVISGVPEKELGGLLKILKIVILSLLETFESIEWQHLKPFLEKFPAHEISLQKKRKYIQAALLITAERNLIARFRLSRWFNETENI

T3: Mer2 (Saccharomyces cerevisiae, UniProt P21651 1-314)
T3 sequence: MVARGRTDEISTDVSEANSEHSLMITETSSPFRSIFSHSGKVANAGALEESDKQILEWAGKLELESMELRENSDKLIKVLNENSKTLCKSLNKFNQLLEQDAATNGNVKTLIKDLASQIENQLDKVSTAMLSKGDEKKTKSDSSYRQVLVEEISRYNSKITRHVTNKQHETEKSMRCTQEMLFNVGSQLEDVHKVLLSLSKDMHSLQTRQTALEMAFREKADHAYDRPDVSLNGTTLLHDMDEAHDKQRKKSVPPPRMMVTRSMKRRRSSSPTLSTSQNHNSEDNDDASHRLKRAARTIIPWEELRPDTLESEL

T4: Rec114-Mei4 (Saccharomyces cerevisiae, UniProt P32841;P29467 1-428;1-408)
T4 sequence 1: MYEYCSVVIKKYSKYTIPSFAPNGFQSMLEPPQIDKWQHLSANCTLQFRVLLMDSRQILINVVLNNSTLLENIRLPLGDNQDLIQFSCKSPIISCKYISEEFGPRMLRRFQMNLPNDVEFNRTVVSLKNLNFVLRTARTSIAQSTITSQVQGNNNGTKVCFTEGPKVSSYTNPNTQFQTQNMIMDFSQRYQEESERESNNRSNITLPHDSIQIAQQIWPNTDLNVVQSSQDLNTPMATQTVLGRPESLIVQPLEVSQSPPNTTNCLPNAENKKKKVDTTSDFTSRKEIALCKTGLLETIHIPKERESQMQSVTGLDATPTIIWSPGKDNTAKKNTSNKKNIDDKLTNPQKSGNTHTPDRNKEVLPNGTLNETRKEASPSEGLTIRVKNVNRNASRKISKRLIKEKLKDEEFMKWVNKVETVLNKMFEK
T4 sequence 2: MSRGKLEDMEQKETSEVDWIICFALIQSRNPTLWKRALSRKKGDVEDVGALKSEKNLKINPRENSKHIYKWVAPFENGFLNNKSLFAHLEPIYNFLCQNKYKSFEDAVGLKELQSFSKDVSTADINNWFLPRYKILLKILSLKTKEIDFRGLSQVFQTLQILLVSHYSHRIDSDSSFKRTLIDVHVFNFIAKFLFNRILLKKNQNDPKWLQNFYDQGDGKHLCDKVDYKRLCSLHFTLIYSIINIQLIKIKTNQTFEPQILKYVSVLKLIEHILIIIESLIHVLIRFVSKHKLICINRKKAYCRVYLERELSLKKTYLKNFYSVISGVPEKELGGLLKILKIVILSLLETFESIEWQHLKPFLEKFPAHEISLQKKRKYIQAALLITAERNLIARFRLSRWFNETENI


Assays:
[1] = target: Mer2 coiled-coil single-chain dimer (S. cerevisiae) (UniProt P21651); experiment: SEC-MALS
[2] = target: T1, MBP-tagged Mei4; experiment: SEC-MALS
[3] = target: T2, Mei4 (untagged, from ^MBP-TEVMei4); experiment: SEC-MALS
[4] = target: T3, Mer2; experiment: EMSA
[5] = target: T4, Rec114-Mei4; experiment: EMSA
[6] = target: the molecule itself; experiment: SEC-MALS
[7] = target: the molecule itself; experiment: SEC-MALS; remark: listed apart in the source

Molecule	apparent K (half saturation) [4]	apparent K (half saturation) [5]	also measured
Mer2 coiled-coil single-chain dimer (from UniProt P21651)	–	–	stoichiometry N [1]: 2
HisFlag-tagged Rec114 (natural protein) MYEYCSVVIKKYSKYTIPSFAPNGFQSMLEPPQIDKWQHLSANCTLQFRVLLMDSRQILINVVLNNSTLLENIRLPLGDNQDLIQFSCKSPIISCKYISEEFGPRMLRRFQMNLPNDVEFNRTVVSLKNLNFVLRTARTSIAQSTITSQVQGNNNGTKVCFTEGPKVSSYTNPNTQFQTQNMIMDFSQRYQEESERESNNRSNITLPHDSIQIAQQIWPNTDLNVVQSSQDLNTPMATQTVLGRPESLIVQPLEVSQSPPNTTNCLPNAENKKKKVDTTSDFTSRKEIALCKTGLLETIHIPKERESQMQSVTGLDATPTIIWSPGKDNTAKKNTSNKKNIDDKLTNPQKSGNTHTPDRNKEVLPNGTLNETRKEASPSEGLTIRVKNVNRNASRKISKRLIKEKLKDEEFMKWVNKVETVLNKMFEK	–	–	stoichiometry N [2]: 2 Rec114 per Mei4
Rec114 (untagged, from ^HisFlag-TEVRec114) (natural protein) MYEYCSVVIKKYSKYTIPSFAPNGFQSMLEPPQIDKWQHLSANCTLQFRVLLMDSRQILINVVLNNSTLLENIRLPLGDNQDLIQFSCKSPIISCKYISEEFGPRMLRRFQMNLPNDVEFNRTVVSLKNLNFVLRTARTSIAQSTITSQVQGNNNGTKVCFTEGPKVSSYTNPNTQFQTQNMIMDFSQRYQEESERESNNRSNITLPHDSIQIAQQIWPNTDLNVVQSSQDLNTPMATQTVLGRPESLIVQPLEVSQSPPNTTNCLPNAENKKKKVDTTSDFTSRKEIALCKTGLLETIHIPKERESQMQSVTGLDATPTIIWSPGKDNTAKKNTSNKKNIDDKLTNPQKSGNTHTPDRNKEVLPNGTLNETRKEASPSEGLTIRVKNVNRNASRKISKRLIKEKLKDEEFMKWVNKVETVLNKMFEK	–	–	stoichiometry N [3]: 2 Rec114 per Mei4
dsDNA20 (dsDNA) DNA 1: AAAGATGTCCTAGCAATGTA DNA 2: TACATTGCTAGGACATCTTT	> 400 nM	~80 nM	–
dsDNA80 (dsDNA) DNA 1: CTAGTATAGAGCCGGCGCGCCATGTCTAGATAGCGTTAGGTCTGCCGAATAGTACTACTCGGATCCCGAGCGAACCACGC DNA 2: GCGTGGTTCGCTCGGGATCCGAGTAGTACTATTCGGCAGACCTAACGCTATCTAGACATGGCGCGCCGGCTCTATACTAG	19 nM	6 nM	–
Mer2 coiled-coil domain (residues 77-227) (domain or fragment) IKVLNENSKTLCKSLNKFNQLLEQDAATNGNVKTLIKDLASQIENQLDKVSTAMLSKGDEKKTKSDSSYRQVLVEEISRYNSKITRHVTNKQHETEKSMRCTQEMLFNVGSQLEDVHKVLLSLSKDMHSLQTRQTALEMAFREKADHAYDR	–	–	stoichiometry N [6]: 4
Mer2 (untagged, from ^SUMOMer2) (natural protein) MVARGRTDEISTDVSEANSEHSLMITETSSPFRSIFSHSGKVANAGALEESDKQILEWAGKLELESMELRENSDKLIKVLNENSKTLCKSLNKFNQLLEQDAATNGNVKTLIKDLASQIENQLDKVSTAMLSKGDEKKTKSDSSYRQVLVEEISRYNSKITRHVTNKQHETEKSMRCTQEMLFNVGSQLEDVHKVLLSLSKDMHSLQTRQTALEMAFREKADHAYDRPDVSLNGTTLLHDMDEAHDKQRKKSVPPPRMMVTRSMKRRRSSSPTLSTSQNHNSEDNDDASHRLKRAARTIIPWEELRPDTLESEL	–	–	stoichiometry N [7]: 4
dsDNA40 (dsDNA) DNA 1: CAACGTGGGCAAAGATGTCCTAGCAATGTAATCGTCTATG DNA 2: CATAGACGATTACATTGCTAGGACATCTTTGCCCACGTTG	64 nM	35 nM	–
